Results: patent US20160361280A1

Key:
[1] = biological target: hCD1d/β-2-microglobulin refolded with α-GalCer carbamate 8 (human) (UniProt P15813); assay: SPR (BIAcore); calculated from experimental koff and Kd
[2] = biological target: hCD1d/β-2-microglobulin refolded with ThrCer 2 (human) (UniProt P15813); assay: as above
[3] = biological target: hCD1d/β-2-microglobulin refolded with α-GalCer thioamide 6 (human) (UniProt P15813); assay: as above
[4] = biological target: hCD1d/β-2-microglobulin refolded with α-GalCer 1 (human) (UniProt P15813); assay: as above
[5] = biological target: hCD1d/β-2-microglobulin refolded with ThrCer carbamate 11 (human) (UniProt P15813); assay: as above
[6] = biological target: hCD1d/β-2-microglobulin refolded with ThrCer thioamide 9 (human) (UniProt P15813); assay: as above
[7] = biological target: hCD1d/β-2-microglobulin refolded with α-GalCer carbamate 8 (human) (UniProt P15813); assay: SPR (BIAcore), kinetics; TCR injected over immobilised biotinylated hCD1d-lipid
[8] = biological target: hCD1d/β-2-microglobulin refolded with ThrCer 2 (human) (UniProt P15813); assay: as above
[9] = biological target: hCD1d/β-2-microglobulin refolded with α-GalCer thioamide 6 (human) (UniProt P15813); assay: as above
[10] = biological target: hCD1d/β-2-microglobulin refolded with α-GalCer 1 (human) (UniProt P15813); assay: as above
[11] = biological target: hCD1d/β-2-microglobulin refolded with ThrCer carbamate 11 (human) (UniProt P15813); assay: as above
[12] = biological target: hCD1d/β-2-microglobulin refolded with ThrCer thioamide 9 (human) (UniProt P15813); assay: as above
[13] = biological target: hCD1d/β-2-microglobulin refolded with α-GalCer carbamate 8 (human) (UniProt P15813); assay: SPR (BIAcore), equilibrium binding; TCR injected over immobilised biotinylated hCD1d-lipid
[14] = biological target: hCD1d/β-2-microglobulin refolded with ThrCer 2 (human) (UniProt P15813); assay: as above
[15] = biological target: hCD1d/β-2-microglobulin refolded with α-GalCer thioamide 6 (human) (UniProt P15813); assay: as above
[16] = biological target: hCD1d/β-2-microglobulin refolded with α-GalCer 1 (human) (UniProt P15813); assay: as above
[17] = biological target: hCD1d/β-2-microglobulin refolded with ThrCer carbamate 11 (human) (UniProt P15813); assay: as above
[18] = biological target: hCD1d/β-2-microglobulin refolded with ThrCer thioamide 9 (human) (UniProt P15813); assay: as above

kon [1]: 534000 M⁻¹ s⁻¹
kon [2]: 258000 M⁻¹ s⁻¹
kon [3]: 128000 M⁻¹ s⁻¹
kon [4]: 258000 M⁻¹ s⁻¹
kon [5]: 259000 M⁻¹ s⁻¹
kon [6]: 520000 M⁻¹ s⁻¹
koff [7]: 0.919 s⁻¹
koff [8]: 1.18 s⁻¹
koff [9]: 0.537 s⁻¹
koff [10]: 0.565 s⁻¹
koff [11]: 1.19 s⁻¹
koff [12]: 1.88 s⁻¹
Kd [13]: 1.72 µM
Kd [14]: 4.57 µM
Kd [15]: 4.2 µM
Kd [16]: 2.19 µM
Kd [17]: 4.6 µM
Kd [18]: 36.1 µM
Substance: soluble human iNKT cell T cell receptor (Vα24/Vβ11 heterodimer) (TCR)
